Measurements published in publication PMC5719983, “The Cryoelectron Microscopy Structure of the Type 1 Chaperone-Usher Pilus Rod” (Structure(London, England:1993), 2017).

Biological target: the molecule itself
Assay: co-sedimentation; in vitro assembly of FimA monomers to pilus rods: 50 μM FimA monomer in 20 mM acetic acid-NaOH pH 5.0, 150 mM NaCl, 7 days; rods pelleted at 186'000 x g, 10 min, 4°C

B1: Mature FimA without its natural signal sequence (159 residues), refolded FimA monomer (natural protein)
chain: AATTVNGGTVHFKGEVVNAACAVDAGSVDQTVQLGQVRTASLAQEGATSSAVGFNIQLNDCDTNVASKAAVAFLGTAIDAGHTNVLALQSSAAGSATNVGVQILDRTGAALTLDGATFSSETTLNNGTNTIPFQARYFATGAATPGAANADATFKVQYQ
notes: the N-terminal methionine added for cytoplasmic expression was cleaved off quantitatively (measured 15826.0 Da). numbers count on: the mature protein; also called pili assembled in vitro
binding result: binds
